According to patent US20220363769A1 (SORRISO PHARMACEUTICALS, published 2022):
Changes are numbered by the printed parent chain. Names and notes keep the numbering of the source.

T1: recombinant human IL-7Rα-His6-Fc (human, UniProt P16871 21-239)
T1 construct: also called hIL-7R; not shown: His6 tag; Fc (captured by anti-human IgG Fc)
T1 chain: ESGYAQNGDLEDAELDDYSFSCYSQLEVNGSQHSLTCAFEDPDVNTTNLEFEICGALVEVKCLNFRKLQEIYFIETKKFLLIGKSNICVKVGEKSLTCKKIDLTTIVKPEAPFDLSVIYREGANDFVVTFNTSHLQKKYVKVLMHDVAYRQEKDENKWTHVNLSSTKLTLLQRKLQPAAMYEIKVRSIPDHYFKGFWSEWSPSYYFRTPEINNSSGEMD

B1: ID-A39U (VHH)
VHH: EVQLVESGGGLVQAGGSLRLSCESSISTFSSDAMGWFRQAPGKGREFLAAIGWSGAVTHYSDSVQGRFTISRDNAKNTVYLQMNSLRAEDTGRYYCAEDYDTDVWQYWGQGTQVTVSS
notes: V7R-2E9 with E44G, K87R, S88A
B2: ID-A25U (VHH)
VHH: B1 VHH with F47W, Q65K
notes: V7R-2E9 with E44G, F47W, Q65K, K87R, S88A
B3: ID-A33U (VHH)
VHH: B1 VHH with R87K
notes: V7R-2E9 with E44G, S88A
B4: ID-A24U (VHH)
VHH: B1 VHH with G44E, R45L, F47W, Q65K
notes: V7R-2E9 with R45L, F47W, Q65K, K87R, S88A
B5: ID-A38U (VHH)
VHH: B1 VHH with Q65K, R87K
notes: V7R-2E9 with E44G, Q65K, S88A
B6: ID-A36U (VHH)
VHH: B1 VHH with G44E
notes: V7R-2E9 with K87R, S88A
B7: ID-A31U (VHH)
VHH: B1 VHH with Q65K, R87K, A88S
notes: V7R-2E9 with E44G, Q65K
B8: ID-A26U (VHH)
VHH: B1 VHH with R45L, Q65K
notes: V7R-2E9 with E44G, R45L, Q65K, K87R, S88A
B9: ID-A32U (VHH)
VHH: B1 VHH with A88S
notes: V7R-2E9 with E44G, K87R
B10: ID-A23U (VHH)
VHH: B1 VHH with R45L, F47W, Q65K
notes: V7R-2E9 with E44G, R45L, F47W, Q65K, K87R, S88A
B11: ID-A27U (VHH)
VHH: B1 VHH with R45L, F47W
notes: V7R-2E9 with E44G, R45L, F47W, K87R, S88A
B12: ID-A35U (VHH)
VHH: B1 VHH with G44E, Q65K, R87K
notes: V7R-2E9 with Q65K, S88A
B13: ID-A30U (VHH)
VHH: B1 VHH with Q65K
notes: V7R-2E9 with E44G, Q65K, K87R, S88A
B14: ID-A28U (VHH)
VHH: B1 VHH with R45L, F47W, Q65K, R87K
notes: V7R-2E9 with E44G, R45L, F47W, Q65K, S88A
B15: ID-A29U (VHH)
VHH: B1 VHH with R45L, F47W, Q65K, A88S
notes: V7R-2E9 with E44G, R45L, F47W, Q65K, K87R
B16: ID-A34U (VHH)
VHH: B1 VHH with G44E, Q65K, A88S
notes: V7R-2E9 with Q65K, K87R
B17: ID-A37U (VHH)
VHH: B1 VHH with Q65K, A88S
notes: V7R-2E9 with E44G, Q65K, K87R
B18: V7R-2B6 (VHH)
VHH: EVQLVESGGGLVQAGGSLRLSCESSARTFSDDAMGWFRQAAGKEREFLAAINWSGAVTHYGDSVKGRFTISRDNAKNTVYLQMDSLKPEDTAVYYCAEDYDTDVWQHWGQGTQVTVSS
notes: llama ICVD, primary clone, expressed in E. coli TG1; not shown: C-terminal FLAG and 6xHis tags from vector pMEK222
B19: V7R-2E5 (VHH)
VHH: B1 VHH with A14P, G44E, R87K, A88S
notes: as for B18
B20: V7R-3B5 (VHH)
VHH: B1 VHH with A14V, G44E, R87K, A88S
notes: as for B18
B21: V7R-6C12 (VHH)
VHH: B1 VHH with G44E, Q65K, R87K, A88S, D101V
notes: llama ICVD, primary clone, expressed in E. coli TG1; also called IL-7R-6C12; not shown: C-terminal FLAG and 6xHis tags from vector pMEK222
B22: V7R-4F6 (VHH)
VHH: B1 VHH with S30G, G44E, L48V, I51T, Q65K, R87K, A88S, R93T
notes: as for B18
B23: V7R-2F6 (VHH)
VHH: B1 VHH with S27G, G44E, A56T, R87K, A88S
notes: as for B18
B24: ID-A2U (VHH)
VHH: B1 VHH with E23A, G44E, R87K, A88S
notes: V7R-2E9 with E23A; produced from E. coli
B25: ID-A13U (VHH)
VHH: B1 VHH with G44E, A49S, R87K, A88S
notes: V7R-2E9 with A49S; produced from E. coli
B26: ID-A8U (VHH)
VHH: B1 VHH with R45L, F47W, R87K, A88S
notes: V7R-2E9 with 44 to 47 EREF to GLEW; produced from E. coli
B27: ID-A20U (VHH)
VHH: B1 VHH with G44E, R87K, A88S, R93V
notes: V7R-2E9 with R93V; produced from E. coli
B28: ID-A16U (VHH)
VHH: B1 VHH with G44E, A88S
notes: V7R-2E9 with K87R; produced from E. coli
B29: ID-A10U (VHH)
VHH: B1 VHH with G44E, R45L, R87K, A88S
notes: V7R-2E9 with R45L; produced from E. coli
B30: ID-A14U (VHH)
VHH: B1 VHH with G44E, Q65K, R87K, A88S
notes: V7R-2E9 with Q65K; produced from E. coli
B31: ID-A4U (VHH)
VHH: B1 VHH with S24A, G44E, R87K, A88S
notes: V7R-2E9 with S24A; produced from E. coli
B32: ID-A17U (VHH)
VHH: B1 VHH with G44E, R87K
notes: V7R-2E9 with S88A; produced from E. coli
B33: ID-A12U (VHH)
VHH: B1 VHH with G44E, L48V, R87K, A88S
notes: V7R-2E9 with L48V; produced from E. coli
B34: ID-A19U (VHH)
VHH: B1 VHH with G44E, R87K, A88S, G92A
notes: V7R-2E9 with G92A; produced from E. coli
B35: ID-A7U (VHH)
VHH: B1 VHH with R45L, F47W, L48V, A49S, R87K, A88S
notes: V7R-2E9 with 44 to 49 EREFLA to GLEWS (so in the source); produced from E. coli
B36: ID-A5U (VHH)
VHH: B1 VHH with I26G, G44E, R87K, A88S
notes: V7R-2E9 with I26G; produced from E. coli
B37: ID-A6U (VHH)
VHH: B1 VHH with F37V, G44E, R87K, A88S
notes: V7R-2E9 with F37V; produced from E. coli
B38: ID-A15U (VHH)
VHH: B1 VHH with G44E, V79L, R87K, A88S
notes: V7R-2E9 with V79L; produced from E. coli
B39: ID-A11U (VHH)
VHH: B1 VHH with G44E, F47W, R87K, A88S
notes: V7R-2E9 with F47W; produced from E. coli
B40: ID-A18U (VHH)
VHH: B1 VHH with G44E, R87K, A88T
notes: V7R-2E9 with S88T; produced from E. coli
B41: ID-A9U (VHH)
VHH: B1 VHH with R87K, A88S
notes: V7R-2E9 with E44G; produced from E. coli
B42: ID-A21U (VHH)
VHH: B1 VHH with G44E, R87K, A88S, Q113L
notes: V7R-2E9 with Q113L; produced from E. coli
B43: human IL-7Rα (receptor)
chain: T1 chain
notes: native receptor on human lymphocytes, monocytes and UC biopsy tissue in the cell assays; also called CD127

Target: T1, recombinant human IL-7Rα-His6-Fc
Test: IL-7/IL-7Rα-His6-Fc ELISA; inhibition of IL-7 binding to IL-7R

| EC50 [nM] | Binder |
| --- | --- |
| 0.411 | B1 |
| 0.835 | B2 |
| 0.429 | B3 |
| 0.819 | B4 |
| 0.789 | B5 |
| 0.797 | B6 |
| 0.336 | B7 |
| 0.841 | B8 |
| 0.367 | B9 |
| 0.854 | B10 |
| 0.395 | B11 |
| 0.849 | B12 |
| 0.362 | B13 |
| 0.46 | B14 |
| 0.476 | B15 |
| 0.376 | B16 |
| 0.845 | B17 |

Target: T1, recombinant human IL-7Rα-His6-Fc
Test: IL-7/IL-7R neutralising ELISA; inhibition of IL-7 binding to IL-7R
Description: A 7-point dilution series of the clones was prepared in 1% BSA (at 2× the assay concentration) starting at 300 nM and using a 3.2 dilution factor. […] Block buffer alone was also added to each plate as blank. […] TMB reaction was stopped after 30 minutes.
EC₅₀ values were generated in Graphpad prism using the ELISA signal blank corrected A450 data and ‘log(inhibitor) vs. response—Variable slope (four parameters)’ to fit curves and generate EC₅₀.

| EC50 [nM] | Binder |
| --- | --- |
| 0.264 | B18 |
| 0.64 | B19 |
| 0.222 | B20 |
| 0.416 | B21 |
| 0.259 | B22 |
| 0.361 | B23 |

Target: T1, recombinant human IL-7Rα-His6-Fc
Test: IL-7/IL-7R neutralisation ELISA; inhibition of IL-7 binding to IL-7R
Description: A 7-point dilution series of the clones was prepared in 1% BSA (at 2× the assay concentration) starting at 300 nM and using a 3.2 dilution factor. […] Block buffer alone was also added to each plate as blank. […] TMB reaction was stopped after 30 minutes. […]

| EC50 [nM] | Binder |
| --- | --- |
| 0.475 | B24 |
| 0.615 | B25 |
| 0.604 | B26 |
| 0.139 | B27 |
| 0.446 | B28 |
| 0.529 | B29 |
| 0.15 | B30 |
| 0.489 | B31 |
| 0.493 | B32 |
| 0.179 | B33 |
| 0.188 | B34 |
| 0.513 | B35 |
| 0.49 | B36 |
| 0.194 | B37 |
| 0.146 | B38 |
| 0.175 | B39 |
| 0.214 | B40 |
| 0.168 | B41 |
| 0.436 | B42 |

The binders below were run against T2, ID-A40U (assay: competition ELISA: ID-A40U premixed with serially diluted soluble IL-7R, then added to plate-coated human IL-7Rα-His6-Fc; bound ICVD detected).
T2 construct: V7R-2E9 with Q65K, K87R, S88A; produced in E. coli; also called A40U-F/H; not shown: Flag-His6 tag
Description: (§1) 96-well plates were coated with 0.5 μg/mL recombinant human IL-7Rα His₆-Fc +5 μg/mL BSA and then blocked. 0.5 nM of ICVD was mixed 1:1 with the test compounds of choice serially diluted in 1% BSA, then incubated for 30 minutes to allow binding before adding to the IL-7Rα coated plates. Following 2 hours incubation, bound ICVD was detected with 50 uL/well 1/20000 anti-FLAG-HRP Goat antibody (GeneTex, GTX21238), and the level of neutralisation of ICVD-IL-7Rα binding by the test compounds was determined.

| IC50 (read off the curve) [µg/mL] | Binder |
| --- | --- |
| ~0.03 | B43 |

These binders were tested against T2, ID-A40U (assay: competition ELISA: ID-A40U premixed with serially diluted soluble receptor, then added to plate-coated human IL-7Rα; bound ICVD detected [left panel]).
Description: as §1

| IC50 (read off the curve) [µg/mL] | Binder |
| --- | --- |
| ~0.02 | B43 |

These binders were tested against T2, ID-A40U (assay: competition ELISA: ID-A40U premixed with serially diluted soluble receptor, then added to plate-coated human IL-7Rα; bound ICVD detected [right panel]).
Description: as §1

| IC50 (read off the curve) [µg/mL] | Binder |
| --- | --- |
| ~0.02 | B43 |
